Experimental data as given in patent US20150224205A1.
Where “and” joins values, the source holds several entries; their conditions need not be identical. Equal values may be shown once.

Each substance was assayed against T1, C1-esterase (assay: cell-based or functional assay).
T1 sequence (P09871 16-688, species assumed, looked up): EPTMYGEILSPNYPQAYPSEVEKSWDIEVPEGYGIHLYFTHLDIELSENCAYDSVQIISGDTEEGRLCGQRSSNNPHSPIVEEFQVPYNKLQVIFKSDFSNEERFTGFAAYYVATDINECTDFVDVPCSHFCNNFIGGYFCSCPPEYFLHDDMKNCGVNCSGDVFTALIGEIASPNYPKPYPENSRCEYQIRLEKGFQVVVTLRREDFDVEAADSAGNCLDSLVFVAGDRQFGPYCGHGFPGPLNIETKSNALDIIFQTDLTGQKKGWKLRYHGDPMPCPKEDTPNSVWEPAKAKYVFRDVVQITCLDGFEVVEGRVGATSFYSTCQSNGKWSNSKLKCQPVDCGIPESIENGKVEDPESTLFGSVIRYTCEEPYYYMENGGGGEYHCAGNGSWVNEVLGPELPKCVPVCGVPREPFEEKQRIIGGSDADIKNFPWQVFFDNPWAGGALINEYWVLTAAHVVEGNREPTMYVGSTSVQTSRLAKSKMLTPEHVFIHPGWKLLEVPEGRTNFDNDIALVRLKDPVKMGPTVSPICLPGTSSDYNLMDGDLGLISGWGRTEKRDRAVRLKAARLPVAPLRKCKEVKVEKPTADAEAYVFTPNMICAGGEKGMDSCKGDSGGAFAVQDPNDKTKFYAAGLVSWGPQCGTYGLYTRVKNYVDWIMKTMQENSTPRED

5k mPEG-BCN-C1 INH, sequence (P05155 23-500 limits assumed): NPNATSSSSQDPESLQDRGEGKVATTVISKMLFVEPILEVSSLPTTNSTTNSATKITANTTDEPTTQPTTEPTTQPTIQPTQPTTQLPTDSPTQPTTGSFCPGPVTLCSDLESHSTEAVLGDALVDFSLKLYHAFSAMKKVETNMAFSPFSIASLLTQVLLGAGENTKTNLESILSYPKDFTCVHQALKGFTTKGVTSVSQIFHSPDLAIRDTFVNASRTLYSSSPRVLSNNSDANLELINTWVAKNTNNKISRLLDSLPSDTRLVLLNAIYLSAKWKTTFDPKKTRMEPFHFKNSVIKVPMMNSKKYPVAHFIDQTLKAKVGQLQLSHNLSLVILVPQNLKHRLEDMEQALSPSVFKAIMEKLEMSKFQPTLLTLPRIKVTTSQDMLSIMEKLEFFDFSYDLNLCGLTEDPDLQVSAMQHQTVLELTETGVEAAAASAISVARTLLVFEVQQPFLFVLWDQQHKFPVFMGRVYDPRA
ALD-PEG(40 k)-C1 INH, mono PEGylated (PEG#/C1 INH = 1), sequence (P05155 23-500 limits assumed): as above
ALD-PEG2(40 k)-C1 INH, di PEGylated (PEG#/C1 INH = 2), sequence (P05155 23-500 limits assumed): as above
ALD-PEG2(40 k)-C1 INH, mono PEGylated (PEG#/C1 INH = 1), sequence (P05155 23-500 limits assumed): as above
ALD-PEG(40 k)-C1 INH, di PEGylated (PEG#/C1 INH = 2), sequence (P05155 23-500 limits assumed): as above

Row | Substance | % C1 INH Activity | C1 in activity | Specific Activity (U/mg)
1 | 5k mPEG-BCN-C1 INH (from UniProt P05155 23-500) | 100% | 3.7 U/mg | 7.3 U/mg
2 | ALD-PEG(40 k)-C1 INH, di PEGylated (PEG#/C1 INH = 2) (from UniProt P05155 23-500) | 75% |  | 6.8 U/mg

Second part, the substance after the results:

Row | % C1 INH Activity | C1 in activity | Specific Activity (U/mg) | Substance
3 | 81% |  | 7.4 U/mg | ALD-PEG2(40 k)-C1 INH, mono PEGylated (PEG#/C1 INH = 1) (from UniProt P05155 23-500)
4 | 43% |  | 3.9 U/mg | ALD-PEG2(40 k)-C1 INH, di PEGylated (PEG#/C1 INH = 2) (from UniProt P05155 23-500)
5 | 67% |  | 6.1 U/mg and 6.9 U/mg | ALD-PEG(40 k)-C1 INH, mono PEGylated (PEG#/C1 INH = 1) (from UniProt P05155 23-500)
